± gives the standard deviation of the averaged measurements.
B1: library; a variant is named by its letters at N, in order (parent)
chain: GCUGUCACCGGUGUAUUACCCUAGUGGUCGACCGGUCUGAUGAGUCUNNNNNNAGACGAAACAGC

Experiments:
hypoxanthine [1] = variants of: B1; assay: normalized RNA/DNA level with ligand (relative to sTRSVctl = 100) (log10 (% of sTRSVctl)); ligand: hypoxanthine (xanthine aptamer); higher = less ribozyme self-cleavage, higher mRNA level; conditions: ligand concentration (+) RNA-Seq: 5 mM, HEK293T, reporter: mCherry (pCS4076), ligand present: yes
Method in brief: (§1)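 Ribozyme switch library plasmids with mCherry reporters (eGFP in certain ligand experiments) went into HEK293T cells at 4 µg per 6-well well. Where ligand was used, it was applied 1 h before transfection, and total RNA was extracted with EDTA 72 h later for reverse transcription, amplification, barcoding and sequencing. RNA level is the RNA-to-DNA read ratio normalized to a spiked-in non-cleaving sequence or to the leading sequences, then scaled and log-transformed. Scaling was ×100 with log10, the leading set comprised 25 sequences, and the cutoff was ≥100 DNA reads.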

hypoxanthine [2] = variants of: B1; assay: normalized RNA/DNA level without ligand (relative to sTRSVctl = 100) (log10 (% of sTRSVctl)); ligand: hypoxanthine (xanthine aptamer); higher = less ribozyme self-cleavage, higher mRNA level; conditions: HEK293T, reporter: mCherry (pCS4076), ligand present: no
Method in brief: as §1

Variant	normalized RNA/DNA level with ligand (log10) (hypoxanthine [1])	normalized RNA/DNA level without ligand (log10) (hypoxanthine [2])
CGUACU	1.954 ± 0.018	1.8632 ± 0.0012
UGCUCU	1.91 ± 0.042	1.949 ± 0.017
UGCUCG	1.941 ± 0.016	1.77 ± 0.046
UGCUCC	1.972 ± 0.002	1.94 ± 0.037
UGGGCU	2.05 ± 0.031	1.974 ± 0.019
UGGGCC	1.96 ± 0.04	2.019 ± 0.012
UGGGCG	1.96 ± 0.043	1.8 ± 0.042
UGGGCA	1.938 ± 0.014	1.84 ± 0.056
CGGCAC	1.923 ± 0.016	1.733 ± 0.0076
CGGCAA	1.88 ± 0.024	1.529 ± 0.011
AGCUUU	1.94 ± 0.032	1.908 ± 0.0022
AGCUUA	1.91 ± 0.057	1.85 ± 0.0089
CGGCUG	1.97 ± 0.037	1.889 ± 0.0029
CGGCUA	1.935 ± 0.017	1.67 ± 0.031
CGGCUC	2.04 ± 0.061	2.037 ± 0.017
CGGCUU	2.05 ± 0.038	1.93 ± 0.02
CGGACU	1.95 ± 0.042	1.79 ± 0.024
CGGACC	1.94 ± 0.037	1.94 ± 0.049
CGGACG	2.01 ± 0.03	1.72 ± 0.043
UGCGUU	1.986 ± 0.0098	1.921 ± 0.0049

Variant	normalized RNA/DNA level with ligand (log10) (hypoxanthine [1])	normalized RNA/DNA level without ligand (log10) (hypoxanthine [2])
UGCGUG	1.88 ± 0.027	1.68 ± 0.084
UGCGUC	1.989 ± 0.0044	2.031 ± 0.0052
CGCGUG	1.97 ± 0.068	1.73 ± 0.082
CGCGUC	1.97 ± 0.075	2.01 ± 0.061
CGCGUU	1.99 ± 0.054	1.905 ± 0.0075
CGUAAC	1.95 ± 0.047	1.77 ± 0.038
CGUAAG	1.95 ± 0.049	1.76 ± 0.022
CGUAAU	1.86 ± 0.022	1.675 ± 0.013
UGGAAC	1.89 ± 0.032	1.78 ± 0.034
UGGAAG	1.871 ± 0.018	1.556 ± 0.01
UGGAAA	1.91 ± 0.02	1.7 ± 0.039
UGGAUU	1.97 ± 0.021	1.824 ± 0.0038
UGGAUA	1.96 ± 0.042	1.84 ± 0.02
UGGAUC	1.99 ± 0.04	1.95 ± 0.027
AGGCGA	1.92 ± 0.066	1.557 ± 0.0027
AGGCGC	1.962 ± 0.0082	1.87 ± 0.031
UGGGGG	1.883 ± 0.0071	1.57 ± 0.054
UGGGGC	1.99 ± 0.025	1.94 ± 0.0063
UGGGGU	1.915 ± 0.017	1.64 ± 0.034
GGGAUC	1.94 ± 0.075	1.861 ± 0.018

Variant	normalized RNA/DNA level with ligand (log10) (hypoxanthine [1])	normalized RNA/DNA level without ligand (log10) (hypoxanthine [2])
GGGAUA	1.95 ± 0.053	1.69 ± 0.0074
GGGAUU	1.9914 ± 0.00078	1.817 ± 0.014
GGCUGU	1.96 ± 0.025	1.95 ± 0.046
GGCUGC	1.92 ± 0.048	1.58 ± 0.039
GGCUGG	1.9543 ± 0.0009	1.66 ± 0.048
GGCUGA	2.01 ± 0.032	1.87 ± 0.026
AGCUGU	1.938 ± 0.0047	1.75 ± 0.028
GGUAGA	1.894 ± 0.015	1.41 ± 0.058
UGGUCC	1.98 ± 0.035	1.93 ± 0.039
UGGUCU	1.91 ± 0.028	1.91 ± 0.025
CGGUUA	1.89 ± 0.11	1.52 ± 0.045
CGGUUG	1.97 ± 0.072	1.88 ± 0.062
CGGUUU	1.935 ± 0.017	1.791 ± 0.015
CGGGAU	1.94 ± 0.064	1.608 ± 0.016
CGGGAG	1.87 ± 0.04	1.63 ± 0.021
CGGGAC	1.96 ± 0.078	1.726 ± 0.0062
CGGGAA	1.85 ± 0.029	1.53 ± 0.046
GGGUGU	1.9307 ± 0.0015	1.81 ± 0.062

Reference: the supplement of paper PMC6757056
